Tests used:
[1] = molecular target: SIINFEKL/MHC-I complex on DC2.4 cells (mouse) (UniProt P01901); experiment: flow cytometry of DC2.4 cells loaded with SIINFEKL peptide (positive control), PE-25.D1-16 at 0.6 ug/ml
[2] = molecular target: SIINFEKL/MHC-I complex on DC2.4 cells (mouse) (UniProt P01901); experiment: flow cytometry of DC2.4 cells incubated 13 h with OVA antigen fusion protein (SEQ ID NO: 3), PE-25.D1-16 at 0.6 ug/ml

- percent of cells positively stained [1]: > 80%
- percent of cells positively stained [2]: 17.6%
Substance: PE-labeled monoclonal antibody 25.D1-16

Reference: patent US20170340751A1
